Assay results from US20230398182A1 (ACCELERON PHARMA, published 2023).

Target: T1, hTβRII (G4S)2-hFc (human)
T1 construct: 70 lacks the C-terminal lysine; Expressed in CHO cells
Assay: SPR (Biacore), in vitro

T1 sequence (chain, as listed by the source limits assumed): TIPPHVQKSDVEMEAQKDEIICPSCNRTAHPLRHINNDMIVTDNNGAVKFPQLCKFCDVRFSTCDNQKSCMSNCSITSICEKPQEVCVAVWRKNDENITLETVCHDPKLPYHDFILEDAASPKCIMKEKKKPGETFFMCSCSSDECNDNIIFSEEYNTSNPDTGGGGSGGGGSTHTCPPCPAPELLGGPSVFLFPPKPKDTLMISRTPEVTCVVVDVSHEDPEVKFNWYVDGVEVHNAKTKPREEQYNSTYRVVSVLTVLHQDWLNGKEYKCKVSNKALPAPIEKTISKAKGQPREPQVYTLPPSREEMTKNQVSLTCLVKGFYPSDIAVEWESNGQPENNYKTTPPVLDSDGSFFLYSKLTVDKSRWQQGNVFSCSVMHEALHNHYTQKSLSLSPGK

binding result: binds
B1: Human TGFβ2 (ligand, UniProt P61812 303-414, looked up)
chain: ALDAAYCFRNVQDNCCLRPLYIDFKRDLGWKWIHEPKGYNANFCAGACPYLWSSDTQHSRVLSLYNTINPEASASPCCVSQDLEPLTILYYIGKTPKIEQLSNMIVKSCKCS
